Patent US20070148185A1

B1: Plasmodium falciparum Fasciclin Related Adhesive Protein (FRAP), recombinant full length protein (amino acids 1-205) with C-terminal polyhistidine tag (protein)
chain: MKNRFYYNLIIKRLYTRSGGLRKPQKVTNDPESINRKVYWCFEHKPVKRTIINLIYSHNELKIFSNLLNHPTVGSSLIHELSLDGPYTAFFPSNEAMQLINIESFNKLYNDENKLSEFVLNHVTKEYWLYRDLYGSSYQPWLMYNEKREAPEKLRNLLNNDLIVKIEGEFKHCNHSIYLNGSKIIRPNMKCHNGVVHIVDKPIIF
B2: FRAP2, truncated P. falciparum FRAP containing amino acids 1-87, with C-terminal polyhistidine tag (protein)
chain: MKNRFYYNLIIKRLYTRSGGLRKPQKVTNDPESINRKVYWCFEHKPVKRTIINLIYSHNELKIFSNLLNHPTVGSSLIHELSLDGPY

Columns and labels:
[1] = target: heparan sulfate proteoglycans (HSPG) expressed on the surface of HepG2 human liver cells (human); assay: 100 nM protein on HepG2 cells pretreated with Heparinase I 1.25 U/ml, against non-treated cells
[2] = target: heparan sulfate proteoglycans (HSPG) expressed on the surface of HepG2 human liver cells (human); assay: 100 nM protein on HepG2 cells pretreated with Heparinase I 2.50 U/ml, against non-treated cells
[3] = target: heparan sulfate proteoglycans (HSPG) expressed on the surface of HepG2 human liver cells (human); assay: 100 nM protein on HepG2 cells pretreated with Heparinase I 5.00 U/ml, against non-treated cells
[4] = target: heparan sulfate proteoglycans (HSPG) expressed on the surface of HepG2 human liver cells (human); assay: cell-based or functional assay
[5] = target: heparan sulfate proteoglycans (HSPG) expressed on the surface of HepG2 human liver cells (human); assay: HepG2 cell binding assay with soluble heparin as competitive inhibitor
[6] = target: heparan sulfate proteoglycans (HSPG) expressed on the surface of HepG2 human liver cells (human); assay: binding of His-tagged protein to fixed HepG2 cells, anti-polyhistidine detection

Molecule	Inhibition of Binding (%) [1]	Inhibition of Binding (%) [2]	Inhibition of Binding (%) [3]	% Inhibition of invasion of HepG2 cells by P. falciparum sporozoites, FRAP at 10 µg/ml [4]	% Inhibition of invasion of HepG2 cells by P. falciparum sporozoites, FRAP at 20 µg/ml [4]	reduction of binding activity in the presence of free heparin [5]	% Inhibition of invasion of HepG2 cells by P. falciparum sporozoites, FRAP2 at 10 µg/ml [4]	% Inhibition of invasion of HepG2 cells by P. falciparum sporozoites, FRAP2 at 20 µg/ml [4]	loss of binding activity in comparison to the full length protein [6]
recombinant Circumsporozoite (CS) protein with a polyhistidine tag at the carboxyl terminus	48.1%	57.7%	59.1%						
B1	39.4%	42.1%	47.8%	80.9%	89.5%	55%			
B2	42.3%	41.4%	49.4%			60%	88.1%	92.4%	50%
